Experimental data published in patent US20070141048A1 (SYMPHOGEN A S, published 2007).
Positions count from the first letter of the chain named.

T1: Ovalbumin (UniProt P01012 2-386)
T1 sequence: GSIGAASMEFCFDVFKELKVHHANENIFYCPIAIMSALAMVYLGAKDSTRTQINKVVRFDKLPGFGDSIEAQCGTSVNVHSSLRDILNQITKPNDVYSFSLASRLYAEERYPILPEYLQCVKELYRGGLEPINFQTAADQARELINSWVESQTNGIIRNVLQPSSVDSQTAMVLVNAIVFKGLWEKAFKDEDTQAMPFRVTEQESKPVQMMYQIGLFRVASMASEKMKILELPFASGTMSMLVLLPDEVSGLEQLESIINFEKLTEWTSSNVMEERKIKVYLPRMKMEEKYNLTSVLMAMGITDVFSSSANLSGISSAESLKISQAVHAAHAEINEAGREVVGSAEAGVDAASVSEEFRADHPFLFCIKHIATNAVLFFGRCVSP

B1: g060h11 (Fab, V domains shown)
VH: QVTLKESGPTVVKPTQTLTLTCSLSGFALGTTGVAVGWIRQPPGKALEWLGLIDWNDDRRYRPSLKTRLTITQDMSRNQVVLRLTNLDPLDTGTYFCARSVVPATRAFDFWGQGTLVTVS
VL: DIQMTQSSSTLSASVGDRVTITCRASQNINIWLAWYQQKAGKAPKLLIYKASTLERGVPSRFSGSGSGTEFTLTITGLRPDDFGSYYCQHYDGNSLTFGQGTRVDIQ
B2: g060b10 (Fab, V domains shown)
VH: KVQLVESGAEVKKPGATVRVSCKASGYRFNDYCISWVRQAPGQGLEWMGWINGNNADTFYAPKLQGRVTMSTDTSTSTAYMELRNLRSDDTAVYFCARDRGRITLFGEVILRAGWFDSWGQGTLVTVS
VL: EIVMTQSPSSLSASVGDRVTITCQASQDISKYLNWYQQKPGRAPKLLIYEASNLETGVPPRFSGSGSGTHFTFTITGLQPEDIATYYCQQCDSLPPVFGQGTKLEVK
B3: g060g07 (Fab, V domains shown)
VH: QVQLQQSGPGLVKPSETLPLTCTVSGGSFSTYYWSWIRQSPEKGLEWIGYIQNSVNTNYNPSLKSRVIISVDTSNNQFSLKLRSVTAADTAVYYCARVSGWGPRGGIYFDYWGQGTLVTVS
VL: DIQMTQSPSSLSASVSDRVTITCRASQSINKFLNWYQQKPGKAPQLLIYAATNLQSGVPSRFSGSGSGTDFTLTISSLQTEDFATYYCQQSYDMPRTFGQGTKVEIK
B4: g060b06 (Fab, V domains shown)
VH: QVQLQESGGGVVQPGTSLRLSCVVSGFTFRTYGMNWVRQAPGKVLEWLAFVSSDGSDEFYADSVKGRFTVSRDNSKSTLFLKMNSLRADDTAVYYCARDRGAQITLFGAPLIRPSSFDSWGQGTLVTVS
VL: EIVLTQSPSSLSASVGDRITITCQASQDITNYLNWYQQKPGKAPKLLIYDASNLQPGVPSRFSGSRSGTDFTFTISSLRPEDIATYYCQQYDGPVLTFGGGTKVEIK
B5: g060a04 (Fab, V domains shown)
VH: B4 VH with Q1K, Q5V, V44G, V51L, A88P
VL: B4 VL with E1D, I2V, L4M, I19V, R66G, G68V

biological target: T1, Ovalbumin; assay: ELISA, periplasmic extract on coated Ovalbumin

**Q.** Does B1 bind?
**A.** Result: no binding (tested: 10 µg/ml Ovalbumin coat)

**Q.** Does B2 bind?
**A.** Result: no binding (tested: 10 µg/ml Ovalbumin coat)

**Q.** Does B3 bind?
**A.** Result: no binding (tested: 10 µg/ml Ovalbumin coat)

**Q.** Does B4 bind?
**A.** Result: no binding (tested: 10 µg/ml Ovalbumin coat)

**Q.** Does B5 bind?
**A.** Result: no binding (tested: 10 µg/ml Ovalbumin coat)
